Columns and labels:
[1] = target: human CCR8 (human) (UniProt P51685); assay: cell-based or functional assay
[2] = target: human CCR8 (human) (UniProt P51685); assay: flow cytometry on lymphocytes from ovarian cancer ascites, 0.5 µg antibody
[3] = target: human CCR8 (human) (UniProt P51685); assay: flow cytometry on lymphocytes from ovarian cancer ascites, 0.1 µg antibody
[4] = target: human CCR8 (human) (UniProt P51685); assay: flow cytometry on lymphocytes from ovarian cancer ascites, 1 µg antibody
[5] = target: human CCR8 (human) (UniProt P51685); assay: flow cytometry, hCCR8-transfected CHO-K1 cells

Question: For “human CCL1 (from UniProt P22362 24-96) (ligand)”, which EC80 of hCCL1, hCCR8 Gi2 BRET, HEK-293 in suspension [1] is on record?
Answer: Its EC80 of hCCL1, hCCR8 Gi2 BRET, HEK-293 in suspension is 6 nM.

Question: What about the EC80 of hCCL1, hCCR8 Gi2 BRET, adherent HEK-293 (protocol #4) [1] of the same substance?
Answer: Its EC80 of hCCL1, hCCR8 Gi2 BRET, adherent HEK-293 (protocol #4) is 0.6 nM.

Question: Isotype ctrl (antibody) was tested. Which Positive cells [2] did it give?
Answer: Its Positive cells is 3.81%.

Question: What about the Positive cells [3] of the same substance?
Answer: The Positive cells was 2.94%.

Question: What about the Positive cells [4] of the same substance?
Answer: Its Positive cells is 5.06%.

Question: How did the Positive cells [2] turn out when “murine anti-human CCR8 monoclonal antibody L263G8” was run?
Answer: The Positive cells was 9.86%.

Question: And the Positive cells [3]?
Answer: Its Positive cells is 9.5%.

Question: What about the Positive cells [4] of the same substance?
Answer: The Positive cells was 8.64%.

Question: What about the % positive cells [5] of the same substance?
Answer: Its % positive cells is 86.5%.

Question: And the MFI fold change to isotype ctrl [5]?
Answer: Its MFI fold change to isotype ctrl is 19.8 fold.

— patent US20260132208A1
